In series [1] the target is Klebsiella pneumoniae PriB (full-length, 104-amino acid protein) (Klebsiella pneumoniae (strain MGH78578)). As to the kind of experiment: SEC; each protein applied alone at approximately 3.4 g/l to a HiPrep HR 16/10 sephacryl S-100 column, 0.35 ml/min, 10 mM Tris-HCl pH 8, 10% glycerol, 0.5 M NaCl, 1 mM beta-mercaptoethanol; column calibrated with protein standards of known molecular weight.

Series [2] concerns the target PriB (Klebsiella pneumoniae MGH78578, UniProt A6THB2 1-104). As to the kind of experiment: fluorescence anisotropy; apparent Kd; 1 mM Mg2+; 20 mM Tris-HCl pH 8, 50 mM NaCl, 4% glycerol, 1 mM MgCl2, 1 mM beta-mercaptoethanol, 0.1 mg/ml BSA, 1 nM DNA, 25 C. The settings on record: protein: recombinant; tags: N-terminal His6 (pET28b); chain copies: 2; label: 3'-fluorescein; single strand.

Sequence of PriB (A6THB2 whole entry): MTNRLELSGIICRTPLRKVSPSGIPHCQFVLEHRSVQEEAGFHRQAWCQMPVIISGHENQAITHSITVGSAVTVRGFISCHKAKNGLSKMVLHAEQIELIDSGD
Sequence of Klebsiella pneumoniae PriB (full-length, 104-amino acid protein) (natural protein) (A6THB2 whole entry): as above

The molecule “Klebsiella pneumoniae PriB (full-length, 104-amino acid protein) (natural protein)” came in with a stoichiometry N in series [1] of 2.
As to GCGTGGGTAATTGTGCTTCAATGGACTGAC (ssDNA) [30-mer], the Kd in series [2] turned out to be 45 ± 7 nM.
As to GCCGTGATCACCAATGCAGATTGACGAACCTTTGCTCCAGTAACC (ssDNA) [45-mer], the Kd in series [2] was determined as 62 ± 14 nM.
Still for that read-out and setting: the figure for TAGCAATGTAATCGT (ssDNA) [15-mer] is 50 ± 3 nM.

The values above are taken from PMC3169591.
